Laboratory results: US20210238283A1 (Y BIOLOGICS, published 2021)

Experiments:
[1] = target: T1, recombinant mouse LAG-3 fused with mouse Fc (mLAG-Fc) (mouse, UniProt Q61790 24-442, limits assumed); assay: Octet biolayer interferometry, 1:1 global fit
T1 construct: also called mouse LAG-3 antigen; not shown: mouse Fc (mFc) at the carboxy terminal
T1 sequence (looked up): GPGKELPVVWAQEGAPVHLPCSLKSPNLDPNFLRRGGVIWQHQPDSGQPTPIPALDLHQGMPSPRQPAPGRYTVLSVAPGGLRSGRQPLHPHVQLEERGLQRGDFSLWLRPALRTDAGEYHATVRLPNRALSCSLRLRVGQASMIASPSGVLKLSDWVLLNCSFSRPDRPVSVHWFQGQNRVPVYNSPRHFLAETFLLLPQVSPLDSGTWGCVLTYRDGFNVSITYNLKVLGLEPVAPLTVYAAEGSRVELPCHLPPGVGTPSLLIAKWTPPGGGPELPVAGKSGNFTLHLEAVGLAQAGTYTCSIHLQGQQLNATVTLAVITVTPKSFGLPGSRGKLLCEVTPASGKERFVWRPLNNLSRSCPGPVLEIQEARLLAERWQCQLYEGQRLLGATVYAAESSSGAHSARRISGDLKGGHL
Description: (§1) After stabilization for 10 minutes in a buffer (#18-1042, Fortebio Inc.), immobilized antigen or antibody was washed out for 5 minutes with the buffer. The antibody or antigen desired for binding was prepared at different concentrations (0.94-60 nM) in a 96-well plate (#655209, Greiner Bio-One, USA) and subjected to the association reaction for 10 minutes followed by dissociation reaction for 10 minutes or 30 minutes.

[2] = target: T2, recombinant human LAG-3 extracellular domain fused with mouse Fc (hLAG-3-mFc) (human, UniProt P18627 29-450); assay: Octet biolayer interferometry, 1:1 global fit
T2 construct: range 29-450; Made in HEK293F cells; also called human LAG-3 antigen; wild-type (WT) LAG-3; not shown: mouse Fc (mFc) at the carboxy terminal
T2 sequence (looked up): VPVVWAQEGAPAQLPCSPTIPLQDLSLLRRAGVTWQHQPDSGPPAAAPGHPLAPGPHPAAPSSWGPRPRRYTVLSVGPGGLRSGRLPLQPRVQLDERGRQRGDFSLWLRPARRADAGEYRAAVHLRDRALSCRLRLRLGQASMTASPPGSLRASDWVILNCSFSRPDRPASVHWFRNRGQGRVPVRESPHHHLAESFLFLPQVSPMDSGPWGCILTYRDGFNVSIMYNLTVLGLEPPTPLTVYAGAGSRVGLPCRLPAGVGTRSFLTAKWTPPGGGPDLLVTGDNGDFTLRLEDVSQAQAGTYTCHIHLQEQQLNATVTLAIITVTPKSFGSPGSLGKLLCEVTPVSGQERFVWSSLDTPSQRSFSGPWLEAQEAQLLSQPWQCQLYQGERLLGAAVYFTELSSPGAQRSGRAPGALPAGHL
Description: as §1

[3] = target: T3, human LAG-3 overexpressed on cells (human, UniProt P18627 23-525); assay: flow cytometry, HEK293E cells overexpressing human LAG-3
T3 construct: whole, on cells; also called HEK293E-hLAG3; hLAG3 (Human)
T3 sequence (looked up): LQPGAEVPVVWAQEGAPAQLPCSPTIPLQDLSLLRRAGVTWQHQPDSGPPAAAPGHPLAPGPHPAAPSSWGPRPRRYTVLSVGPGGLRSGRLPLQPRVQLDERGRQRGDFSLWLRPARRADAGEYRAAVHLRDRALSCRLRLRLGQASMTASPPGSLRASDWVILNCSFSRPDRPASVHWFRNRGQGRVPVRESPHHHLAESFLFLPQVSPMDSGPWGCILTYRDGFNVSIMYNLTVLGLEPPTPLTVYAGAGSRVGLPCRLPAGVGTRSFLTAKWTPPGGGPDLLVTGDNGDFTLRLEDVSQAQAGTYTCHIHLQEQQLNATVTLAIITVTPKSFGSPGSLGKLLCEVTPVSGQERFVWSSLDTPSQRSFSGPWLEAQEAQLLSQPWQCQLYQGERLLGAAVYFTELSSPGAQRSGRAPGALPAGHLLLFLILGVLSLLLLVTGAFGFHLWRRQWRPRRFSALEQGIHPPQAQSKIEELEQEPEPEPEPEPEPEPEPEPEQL
Description: (§2) After that, the cells were washed three times with PBS containing 2% FBS and then subjected to the reaction for 30 minutes at 4° C. with anti-human IgG antibody (#FI-3000, Vectorlabs) linked with FITC fluorescent. The cells were washed by the same washing process as above followed by suspension in 0.2 ml PBS containing 2% FBS. The cells were then analyzed by FACSCanto II flow cytometer.

[4] = target: T4, monkey (Rhesus monkey) LAG-3 overexpressed on HEK293E cells (Rhesus monkey, UniProt A0A5F8A874 23-533); assay: flow cytometry, HEK293E cells overexpressing monkey LAG-3
T4 construct: whole, on cells; also called HEK293E-MrhLAG3; MrhLAG3 (Rhesus Monkey)
T4 sequence: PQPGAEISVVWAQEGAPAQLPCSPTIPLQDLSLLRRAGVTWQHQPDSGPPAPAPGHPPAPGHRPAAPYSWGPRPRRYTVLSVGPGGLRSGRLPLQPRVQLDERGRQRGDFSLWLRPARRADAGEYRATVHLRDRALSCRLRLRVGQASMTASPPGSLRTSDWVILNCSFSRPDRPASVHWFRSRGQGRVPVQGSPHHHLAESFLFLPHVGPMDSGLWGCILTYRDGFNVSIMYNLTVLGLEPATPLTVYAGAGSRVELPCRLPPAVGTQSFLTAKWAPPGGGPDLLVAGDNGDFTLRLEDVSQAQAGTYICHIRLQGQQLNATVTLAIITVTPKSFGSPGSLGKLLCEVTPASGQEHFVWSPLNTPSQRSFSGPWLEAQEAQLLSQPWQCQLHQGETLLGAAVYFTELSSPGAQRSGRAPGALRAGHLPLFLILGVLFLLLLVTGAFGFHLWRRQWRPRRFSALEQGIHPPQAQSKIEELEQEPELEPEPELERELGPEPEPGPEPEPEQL
Description: as §2

B1: human anti-LAG-3 monoclonal antibody 1E09 (antibody, V domains shown)
VH: QVQLVQSGGDLVKPGGSLRLSCAASGFSFSDHYMNWIRQAPGKGLEWVAYIDTSATYIYYADSVKGRFTISRDNAKNSLYLQMNSLRAEDTAVYYCARDNWGSLDYWGQGALVTVSS
VL: DIQMTQSPSSLSPSVGDRVTITCQASQEISIYLNWYQQKPGKAPKLLIYDASNLETGVPSRFSGSGSGTDFTLTISSLQPEDFATYYCQQTYITPYTFGQGTKLDIK
notes: Tested as full IgG converted from scFv; also called LAG-3-1E09; Parent (1E09)
Question: B1 was tested. Which koff [1] did it give?
Answer: 0.000256 s⁻¹

Question: What about the kon [1] of the same binder?
Answer: 430000 M⁻¹ s⁻¹

Question: What about the koff [2] of the same binder?
Answer: 7.23e-05 s⁻¹

Question: And the kon [2]?
Answer: 788000 M⁻¹ s⁻¹

Question: And the EC50 [3]?
Answer: 0.0757 µg/mL

Question: And the EC50 [4]?
Answer: 0.246 µg/mL
